Target: 3′-end processing factors
Experiment: immunoprecipitation under standard salt conditions

percent of the 3′-end processing factors associated: < 1%
Substance: tRNA endonuclease

From patent publication US20050053985A1
